Reference: ChEMBL document CHEMBL4706636, “Determining Essential Requirements for Fluorophore Selection in Various Fluorescence Applications Taking Advantage of Diverse Structure-Fluorescence Information of Chromone Derivatives” (J Med Chem, 2021)

What was measured:
[1] = system: CCCc1coc2cc(NC(=O)C(N)CCCCN)c(OC)cc2c1=O; assay: (§1) Substrate activity at trypsin (unknown origin) by fluorescent biochemical assay; assay type: protein assay; conditions: Homo sapiens
[2] = system: CCCc1coc2cc(NC(=O)C(N)CCCCN)ccc2c1=O; assay: as §1; assay type: protein assay; conditions: Homo sapiens

**Q.** With “Trypsin (Homo sapiens) (from UniProt P07477+P07478+P35030)” as the substance, how does the Km [1] read?
**A.** 30.3 µM

**Q.** What about the Km [2] of the same substance?
**A.** 47.6 µM
